Target: AP-DT/AA-LRRTM2 (UniProt O43300)
Experiment: immunostaining of cells or tissue; Nrxn-binding assay: live COS-7 cells expressing biotinylated AP-LRRTM2 (WT or mutants), BirA-ER and EGFP incubated 20 min with Nrxn solution (2 µg Nrxn-1β-Fc + 1.3 µg AlexaFluor647 anti-human Fc), then labelled with mSA-ATTO565 in Tyrode's solution (2 mM CaCl2, pH 7.4) and imaged live; Nrxn1β-Fc surface intensity normalised to AP-LRRTM2 expression

Chain of UniProt O43300 (O43300 34-516 D259A/T261A): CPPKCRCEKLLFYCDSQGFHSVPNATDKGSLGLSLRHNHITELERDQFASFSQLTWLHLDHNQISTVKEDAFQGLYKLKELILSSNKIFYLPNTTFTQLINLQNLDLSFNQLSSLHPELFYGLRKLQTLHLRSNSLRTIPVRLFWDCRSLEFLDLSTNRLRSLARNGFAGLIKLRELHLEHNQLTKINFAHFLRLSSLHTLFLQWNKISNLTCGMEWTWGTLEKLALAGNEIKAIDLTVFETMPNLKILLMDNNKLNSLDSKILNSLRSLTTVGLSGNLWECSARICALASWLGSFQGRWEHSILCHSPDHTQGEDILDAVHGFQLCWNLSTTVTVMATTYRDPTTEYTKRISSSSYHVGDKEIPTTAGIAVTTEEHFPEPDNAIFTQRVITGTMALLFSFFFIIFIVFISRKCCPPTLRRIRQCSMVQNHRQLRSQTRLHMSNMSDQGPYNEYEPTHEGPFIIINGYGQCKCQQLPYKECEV

percent loss of Nrxn1β-Fc binding against AP-LRRTM2-WT: 50%
Substance: Nrxn1β-Fc (-SS4) (Fc fusion)
